Key:
[1] = target: T1, LANA 1-950 (Kaposi's sarcoma-associated herpesvirus); test: EMSA; conditions: label: radiolabel
T1 chain: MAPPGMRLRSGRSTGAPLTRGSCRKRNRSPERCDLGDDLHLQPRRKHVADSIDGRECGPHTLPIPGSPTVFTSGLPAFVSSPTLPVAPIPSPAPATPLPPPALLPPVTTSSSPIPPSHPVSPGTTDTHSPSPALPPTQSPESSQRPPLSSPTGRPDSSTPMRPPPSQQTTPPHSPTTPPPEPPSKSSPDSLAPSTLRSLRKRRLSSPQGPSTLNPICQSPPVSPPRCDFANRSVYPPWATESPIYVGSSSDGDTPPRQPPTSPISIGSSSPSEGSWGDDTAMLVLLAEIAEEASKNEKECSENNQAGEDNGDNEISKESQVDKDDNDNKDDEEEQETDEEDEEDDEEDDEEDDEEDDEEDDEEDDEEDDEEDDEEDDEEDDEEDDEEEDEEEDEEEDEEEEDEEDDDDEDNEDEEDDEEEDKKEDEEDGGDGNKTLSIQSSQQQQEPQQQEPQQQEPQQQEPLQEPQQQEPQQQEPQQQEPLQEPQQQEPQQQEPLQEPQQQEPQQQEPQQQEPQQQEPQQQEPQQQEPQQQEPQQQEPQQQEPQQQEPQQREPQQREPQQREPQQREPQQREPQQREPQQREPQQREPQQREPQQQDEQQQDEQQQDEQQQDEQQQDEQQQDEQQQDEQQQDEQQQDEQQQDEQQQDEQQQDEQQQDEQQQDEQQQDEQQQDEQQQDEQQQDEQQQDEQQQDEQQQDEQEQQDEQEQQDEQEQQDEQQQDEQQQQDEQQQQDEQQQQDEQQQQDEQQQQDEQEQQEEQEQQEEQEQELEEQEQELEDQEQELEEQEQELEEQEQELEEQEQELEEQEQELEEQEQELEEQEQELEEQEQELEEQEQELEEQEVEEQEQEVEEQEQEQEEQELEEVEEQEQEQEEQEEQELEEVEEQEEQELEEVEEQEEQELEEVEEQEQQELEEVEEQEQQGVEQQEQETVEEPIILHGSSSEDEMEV

[2] = target: LANA 9-11 (last 237 aa) (Kaposi's sarcoma-associated herpesvirus, UniProt Q9QR71 SEQ:926-1162); test: EMSA; lacks leucine zipper; anti-LANA supershift; conditions: tags: GST; label: radiolabel
LANA 9-11 (last 237 aa), sequence (Q9QR71 893-1129): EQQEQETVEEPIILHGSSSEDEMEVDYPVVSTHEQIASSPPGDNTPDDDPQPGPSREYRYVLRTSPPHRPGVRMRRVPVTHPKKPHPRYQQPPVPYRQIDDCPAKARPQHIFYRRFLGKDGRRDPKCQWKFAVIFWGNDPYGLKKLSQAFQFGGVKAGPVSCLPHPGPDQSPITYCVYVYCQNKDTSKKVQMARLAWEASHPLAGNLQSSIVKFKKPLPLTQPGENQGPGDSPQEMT

B1: TLBR4 (dsDNA)
DNA 1: TCCCGCCCGGGCATGGG
DNA 2: CCCATGCCCGGGCGGGA
[1]
  binding result: no binding
[2]
  binding result: binds
